The series can be described thus: protein stability index of a GFP-peptide fusion (yeast GPS) (PSI 1-4); higher = more stable; sorted into four equal gates, so the index is relative within each strain. In a few lines:
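Sequencing reads from sorted gates were used to score each peptide. The library consisted of tiled 17-residue yeast protein peptides fused downstream of GFP on a Cherry-expressing plasmid, pooled and carried in yeast. Mid-log cultures in leucine-free medium were split into four equal gates by GFP/Cherry ratio, and each gate's plasmids were PCR-amplified and Illumina-sequenced. The protein stability index adds up, over all gates, the read frequency multiplied by the gate number.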

± gives the uncertainty stated by the source.

In the case of FVKVTKATLELLKLIEP [RPL7A], the protein stability index runs as follows: (doa10∆) 3.06 ± 0.11; (pdr5∆) 2.87 ± 0.096; (san1∆) 2.62 ± 0.15; (ubr1∆) 2.91 ± 0.13.
In the case of FVSESPSFVKSGKLRDY [ISW2], the protein stability index is 2.41 ± 0.059 (doa10∆), 2.11 ± 0.051 (pdr5∆), 2.28 ± 0.049 (san1∆) and 2.7 ± 0.044 (ubr1∆).
Take FVSSLSNTSTLKNMLYV [BRR2]: the protein stability index (doa10∆) came to 1.88 ± 0.058, the protein stability index (pdr5∆) was found to be 2.08 ± 0.049, the protein stability index (san1∆) came to 1.85 ± 0.064 and the protein stability index (ubr1∆) turned out to be 2.18 ± 0.036.
On to FYRGNYTDFENTFQKTV [FAS1], for which the protein stability index (doa10∆) came to 2.41 ± 0.074, the protein stability index (pdr5∆) turned out to be 2.63 ± 0.062, the protein stability index (san1∆) was determined as 2.34 ± 0.1 and the protein stability index (ubr1∆) came to 2.67 ± 0.056.
Where the note is “pdr5∆”, FYSKNRLLITGTPLQNN [ISW2] showed a protein stability index of 1.39 ± 0.17.
The sequence GAELRSVCTEAGMFAIR [RPT1] registered a protein stability index (doa10∆) of 2.61 ± 0.18, a protein stability index (pdr5∆) of 3.4 ± 0.3 and a protein stability index (ubr1∆) of 3.03 ± 0.23.
As to GAHLLEFQPSGNVTELY [PRE5], the protein stability index reads like this: (doa10∆) 2.54 ± 0.12; (pdr5∆) 2.99 ± 0.076; (san1∆) 2.92 ± 0.12; (ubr1∆) 3.02 ± 0.11.
Taken in the same sequence, the figures for GAIAYNQFKRIDTLLYL [RET1] were 1.4 ± 0.1, 1.42 ± 0.1, 1.48 ± 0.14 and 1.54 ± 0.066.
For the sequence GAIILTKMDGHARGGGA [SRP54], the protein stability index runs as follows: (doa10∆) 2.88 ± 0.24; (pdr5∆) 3.13 ± 0.16; (san1∆) 2.95 ± 0.13.
GAIKPFTPKLIYDFITL [ECM29] showed a protein stability index (doa10∆) of 1.73 ± 0.081, a protein stability index (pdr5∆) of 1.84 ± 0.098, a protein stability index (san1∆) of 1.87 ± 0.3 and a protein stability index (ubr1∆) of 1.36 ± 0.062.
For GAKFENIVHNFKERQMM [AAR2], in that order: 3.32 ± 0.081, 2.71 ± 0.096, 2.76 ± 0.089 and 3.04 ± 0.11.
For the sequence GAKYVIRDSGDRIDLRY [RPO21], the protein stability index reads like this: (doa10∆) 3.23 ± 0.16; (pdr5∆) 3.31 ± 0.15; (ubr1∆) 3.45 ± 0.13.
GANTSAAQTLLQMDYKD [PRE9] yielded a protein stability index (doa10∆) of 3 ± 0.061, a protein stability index (pdr5∆) of 3.13 ± 0.058, a protein stability index (san1∆) of 3.09 ± 0.048 and a protein stability index (ubr1∆) of 2.96 ± 0.051.
For GASTVMKTKTINAQGEE [PRP8], in that order: 3.31 ± 0.11, 3.06 ± 0.15, 3.2 ± 0.083 and 3.07 ± 0.07.
In the case of GDEGYNEDMVRRANFYK [SNF12], the protein stability index came out at 3.38 ± 0.14 (doa10∆), 3.36 ± 0.17 (pdr5∆), 3.44 ± 0.076 (san1∆) and 3.45 ± 0.14 (ubr1∆).
On to GDIVLTRVTRLSLQRAN [CSL4], for which the protein stability index runs as follows: (doa10∆) 2.14 ± 0.098; (pdr5∆) 1.41 ± 0.093; (san1∆) 1.59 ± 0.16; (ubr1∆) 1.32 ± 0.12.
Turning to GDKFSEDFRIQFKTTIK [UBP6], the protein stability index worked out at 3.14 ± 0.1 (doa10∆), 2.93 ± 0.09 (pdr5∆), 2.32 ± 0.087 (san1∆) and 2.58 ± 0.059 (ubr1∆).
As for GDKVVVTIWYRAPELLL [SSN3], the protein stability index came out at 1.74 ± 0.058 (doa10∆), 1.78 ± 0.072 (pdr5∆), 1.74 ± 0.068 (san1∆) and 2.05 ± 0.044 (ubr1∆).
GDSGISPEESKARSPGI [SIR4]: the protein stability index (doa10∆) came to 3.52 ± 0.15.
As to GEALPNKFHKSIREDIL [SIR2], the protein stability index by setting is: (doa10∆) 3.16 ± 0.14; (pdr5∆) 3.04 ± 0.11; (san1∆) 2.7 ± 0.096; (ubr1∆) 2.76 ± 0.07.
With GEEDADEEETAEGQTNS [RPN1], the protein stability index came out at 3.26 ± 0.18 (doa10∆), 3.16 ± 0.26 (pdr5∆) and 3.01 ± 0.14 (san1∆).
Regarding GEFSGKNFSPTKRVEKP [RRP6], the protein stability index (doa10∆) worked out at 2.37 ± 0.089, the protein stability index (pdr5∆) was 2.47 ± 0.094, the protein stability index (san1∆) came to 2.54 ± 0.078 and the protein stability index (ubr1∆) is 3.22 ± 0.059.
On to GEGPFTVKFKHMDYDGN [YMR129W/POM152], for which the protein stability index runs as follows: (doa10∆) 2.79 ± 0.11; (pdr5∆) 2.86 ± 0.068; (san1∆) 2.78 ± 0.11; (ubr1∆) 2.78 ± 0.059.
Take GEIEIKPNEEEELGFWD [RPN13]: the protein stability index is, setting by setting: (doa10∆) 3.15 ± 0.13; (pdr5∆) 3.19 ± 0.097; (san1∆) 3.25 ± 0.074; (ubr1∆) 3.24 ± 0.094.
Regarding GEILLPDIADIPRTFRT [SNF5], the protein stability index amounted to 2.82 ± 0.14 (doa10∆), 3.18 ± 0.12 (pdr5∆), 3.19 ± 0.12 (san1∆) and 3.05 ± 0.1 (ubr1∆).
Taken in the same sequence, the figures for GEKTLSSLALVFALHKY [SMC4] were 2.57 ± 0.054, 2.48 ± 0.066, 1.9 ± 0.12 and 2.98 ± 0.051.
Taken in the same sequence, the figures for GENIDADNDGPRINNIS [SNF2] were 3.44 ± 0.09, 3.53 ± 0.11, 3.28 ± 0.065 and 3.02 ± 0.09.
Consider GFSMNNPYNIVPQGKIV [SMC3], for which the protein stability index (doa10∆) was found to be 3.05 ± 0.11, the protein stability index (pdr5∆) was 2.93 ± 0.071, the protein stability index (san1∆) worked out at 3.08 ± 0.085 and the protein stability index (ubr1∆) was found to be 3.09 ± 0.062.
In the case of GFSPTSPTYSPTSPAYS [RPO21], the protein stability index came to 2.81 ± 0.052 (doa10∆), 2.74 ± 0.043 (pdr5∆), 2.94 ± 0.051 (san1∆) and 2.39 ± 0.038 (ubr1∆).
Taken in the same sequence, the figures for GGAYTVSTAAAATVRST [RPL43A] were 2.1 ± 0.053, 2.25 ± 0.049, 1.95 ± 0.069 and 2.14 ± 0.048.
For GGLFGNSAQNNSTTSGG [YGR119C/NUP57], the protein stability index (doa10∆) was 3.08 ± 0.069, the protein stability index (pdr5∆) was determined as 3.36 ± 0.11, the protein stability index (san1∆) turned out to be 2.78 ± 0.068 and the protein stability index (ubr1∆) worked out at 3.06 ± 0.096.
Regarding GGQGNTDDYFEELRDLY [FAS1], the protein stability index by setting is: (doa10∆) 3.22 ± 0.088; (pdr5∆) 3.51 ± 0.073; (san1∆) 3.3 ± 0.057; (ubr1∆) 3.28 ± 0.059.
Regarding GGSNYMSNLPFGLGYGD [RPC31], the protein stability index (doa10∆) was 2.83 ± 0.28, the protein stability index (pdr5∆) came to 3.15 ± 0.19 and the protein stability index (ubr1∆) was 3.16 ± 0.18.
As for GHLPEVSSKCNDIHLRF [ECM29], the protein stability index stood at 2.69 ± 0.11 (doa10∆), 2.92 ± 0.082 (pdr5∆) and 3.17 ± 0.17 (ubr1∆).
For GHRMKNAQSKLSLTLNT [SNF2], the protein stability index is, setting by setting: (doa10∆) 1.94 ± 0.056; (pdr5∆) 1.73 ± 0.04; (san1∆) 1.79 ± 0.065; (ubr1∆) 2.24 ± 0.041.
As to GHVKPVRCVNCSKSIPK [RPS26A], the protein stability index (doa10∆) was determined as 2.8 ± 0.1, the protein stability index (pdr5∆) turned out to be 2.7 ± 0.11, the protein stability index (san1∆) was 2.16 ± 0.19 and the protein stability index (ubr1∆) worked out at 3.06 ± 0.14.
On to GIACAGKGLQSAIDVLD [RPN2], for which the protein stability index is, setting by setting: (doa10∆) 2.15 ± 0.068; (pdr5∆) 2.52 ± 0.077; (san1∆) 2.48 ± 0.1; (ubr1∆) 2.75 ± 0.071.
For GIDQYSFNVKENQPFHG [AAR2], in that order: 2.65 ± 0.058, 2.88 ± 0.058, 2.82 ± 0.048 and 2.9 ± 0.051.
Consider GIGALFTQQELQKQMGI [RPC34], for which the protein stability index runs as follows: (doa10∆) 2.93 ± 0.11; (pdr5∆) 3.39 ± 0.095; (san1∆) 3.29 ± 0.085; (ubr1∆) 2.69 ± 0.11.
GIKKHSLWRRTVYSLSQ [YDL116W/NUP84]: the protein stability index by setting is: (doa10∆) 1.44 ± 0.066; (pdr5∆) 1.29 ± 0.071; (san1∆) 1.29 ± 0.14; (ubr1∆) 1.48 ± 0.041.

The values above are taken from the supplement of paper PMC9732359.
